In patent US7943146B2, “Immunizing compositions comprising HIV-1 proviral constructs with an inactive p6 gag TSG101 UEV binding domain capable of producing budding-defective viral particles that remain tethered to the cell surface” (priority 2001, dated 2011):
Residues, ends and D or L forms follow the SMILES beside them. No end group written: not given here.

Key:
Tsg101 = target: T1, Tsg101 (Homo sapiens, UniProt Q99816); assay: Two-hybrid liquid culture β-galactosidase assay; type: cell-based; parameters: expressed in transfected cells; conditions: full length Tsg101, liquid culture, p6 point mutants
T1 sequence (Q99816 1-390): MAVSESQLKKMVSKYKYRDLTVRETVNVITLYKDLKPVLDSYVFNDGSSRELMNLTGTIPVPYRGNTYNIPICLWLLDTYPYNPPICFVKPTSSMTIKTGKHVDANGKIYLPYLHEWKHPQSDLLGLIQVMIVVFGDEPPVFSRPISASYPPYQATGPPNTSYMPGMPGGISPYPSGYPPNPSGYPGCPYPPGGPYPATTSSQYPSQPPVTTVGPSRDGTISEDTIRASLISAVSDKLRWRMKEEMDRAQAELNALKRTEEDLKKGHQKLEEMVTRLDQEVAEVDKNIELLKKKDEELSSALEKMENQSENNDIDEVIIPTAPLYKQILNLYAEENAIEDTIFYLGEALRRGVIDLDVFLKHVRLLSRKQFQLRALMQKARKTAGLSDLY
Method: The interactions between TSG101 and wild-type p6gag (WT) or the p6gag PTAP (SEQ ID NO:1) mutants were further quantitated by performing liquid culture β-galactosidase assays. Cultures were grown overnight in synthetic media (−Leu, −Trp, +glucose) in 96 well plates, normalized for optical density, and lysed by addition of 6× lysis/substrate solution in 6× Z-buffer (60 mM KCl, 6 mM MgSO4, 360 mM Na2HPO4, 240 mM NaH2PO4, 6 mg/ml CPRG, 0.12 U/ml lyticase, 0.075% NP-40). Cultures were incubated for 2 hr at 37° C., clarified by centrifugation, and the optical absorbance of each supernatant was measured (575 nm). Full length Tsg101 bound wild-type p6 in the two-hybrid liquid culture assay, resulting in high levels of β-galactosidase activity (>300-fold over background). […] Each of these point mutations also arrests HIV-1 budding at a late stage (Huang et al. 1995).

HIV = assay: microbe, parasite or virus in culture; type: cell-based, HIV-1; conditions: human PBMCs
Method: Fresh human blood was obtained commercially from Interstate Blood Bank, Inc. (Memphis, Tenn.). The lymphotropic clinical isolate HIV-1ROJO was obtained from a pediatric patient attending the AIDS Clinic at the University of Alabama at Birmingham. The laboratory-adapted HIV-1IIIB strain was propagated and tittered in fresh human PBMCs; pre-titered aliquots of HIV-1ROJO and Hiv-1IIIB were removed from the freezer (−80° C.) and thawed rapidly to room temperature in a biological safety cabinet immediately before use. Phytohemagglutinin (PHA-P) was obtained from Sigma (St. Louis, Mo.) and recombinant IL-2 was obtained from Amgen (San Francisco, Calif.).
Fresh human PBMCs were isolated from screened donors, seronegative for HIV and HBV. Leukophoresed blood was diluted 1:1 with Dulbecco's phosphate buffered saline (PBS), layered over 14 mL of Ficoll-Hypaque density gradient in a 50 mL centrifuge tube and then centrifuged for 30 minutes at 600×g. Banded PBMCs were aspirated from the resulting interface and subsequently washed 2× with PBS by low speed centrifugation. After the final wash, cells were enumerated by trypan blue exclusion and re-suspended at 1×10^7 cells/mL in RPMI 1640 supplemented with 15% Fetal Bovine Serum (FBS), 2 mM L-glutamine, 4 μg/mL PHA-P. The cells were allowed to incubate for 48-72 hours at 37° C. After incubation, PBMCs were centrifuged and reset in RPMI 1640 with 15% FBS, 2 mM L-glutamine, 100 U/ml penicillin, 100 μg/mL streptomycin, 10 μg/mL gentamycin, and 20 U/mL recombinant human IL-2. PBMCs were maintained in this medium at a concentration of 1-2×10^6 cells/mL with biweekly medium changes until used in the assay protocol.
For the standard PBMC assay, PHA-P stimulated cells from at least two normal donors were pooled, diluted in fresh medium to a final concentration of 1×10^6 cells/mL, and plated in the interior wells of 96 well round bottom microplate at 50 μL/well (5×10^4 cells/well). Test drug dilutions were prepared at a 2× concentration in microtiter tubes and […] of each concentration was placed in appropriate wells in a standard format. […] Wells with cells and virus alone were used for virus control. Separate plates were prepared identically without virus for drug cytotoxicity studies using an XTT assay system. The PBMC cultures were maintained for seven days following infection, at which time cell-free supernate samples were collected and assayed for reverse transcriptase activity as described below.
A microtiter based reverse transcriptase (RT) reaction was utilized. See Buckheit et al., AIDS Research and Human Retroviruses 7:295-302 (1991). Tritiated thymidine triphosphate (NEN) (TTP) was resuspended in distilled H2O at 5 Ci/ml. Poly rA and oligo dT were prepared as a stock solution which was kept at −20° C. The RT reaction buffer was prepared fresh on a daily basis and consists of 125 μl 1M EGTA, 125 μl dH2O, 110 μl 10% SDS, 50 μl 1M Tris (pH 7.4), 50 μl 1M DTT, and 40 μl 1M MgCL2. These three solutions were mixed together in a ratio of 2 parts TTP, 1 part poly rA:oligo dT, and 1 part reaction buffer. Ten microliters of this reactions mixture was placed at a round bottom microtiter plate and 15 μl of virus containing supernatant was added and mixed. […] Opti-Fluor-O (Packard) was added to each sample and incorporated radioactivity was quantified utilizing a Wallac 1450 MicroBeta Plus liquid scintillation counter.

p6(A9R): HIV1 p6gag binding domain construct with A9R substitution in the PTAP motif (LQSRPEPTRPPEESFRFGEETTTPSQKQEPIDKELYPLASLRSLFGSDPSSQ; not fully specified)
β-galactosidase activity (in words) (Tsg101): reduced β-galactosidase activity to background levels

p6(P7L): HIV1 p6gag binding domain construct with P7L substitution in the PTAP motif (LQSRPELTAPPEESFRFGEETTTPSQKQEPIDKELYPLASLRSLFGSDPSSQ; not fully specified)
β-galactosidase activity (in words) (Tsg101): reduced β-galactosidase activity to background levels

C[C@H](NC(=O)[C@@H](NC(=O)[C@@H]1CCCN1C(=O)[C@H](CCC(=O)O)NC(=O)[C@@H]1CCCN1C(=O)[C@H](CCCNC(=N)N)NC(=O)[C@H](CCCNC(=N)N)NC(=O)[C@H](CCCNC(=N)N)NC(=O)[C@H](CCCNC(=N)N)NC(=O)[C@H](CCCNC(=N)N)NC(=O)[C@H](CCCNC(=N)N)NC(=O)[C@H](CCCNC(=N)N)NC(=O)[C@H](CCCNC(=N)N)NC(=O)[C@@H](N)CCCNC(=N)N)[C@@H](C)O)C(=O)N1CCC[C@H]1C(=O)N[C@@H](CCC(=O)O)C(=O)N[C@@H](CCC(=O)O)C(=O)O [MPI-PEP1, NH2—(R)9-PEPTAPEE-COOH] (H-RRRRRRRRRPEPTAPEE-OH)
Comments (anti-HIV activity) (HIV): Active

CC(C)C[C@H](NC(=O)[C@H](C)NC(=O)[C@@H](NC(=O)[C@@H]1CCCN1C(=O)[C@H](CCC(=O)O)NC(=O)[C@@H]1CCCN1C(=O)[C@H](CCCNC(=N)N)NC(=O)[C@H](CCCNC(=N)N)NC(=O)[C@H](CCCNC(=N)N)NC(=O)[C@H](CCCNC(=N)N)NC(=O)[C@H](CCCNC(=N)N)NC(=O)[C@H](CCCNC(=N)N)NC(=O)[C@H](CCCNC(=N)N)NC(=O)[C@H](CCCNC(=N)N)NC(=O)[C@@H](N)CCCNC(=N)N)[C@@H](C)O)C(=O)N[C@@H](CCC(=O)O)C(=O)N[C@@H](CCC(=O)O)C(=O)O [MPI-PEP2, NH2—(R)9-PEPTALEE-COOH] (H-RRRRRRRRRPEPTALEE-OH)
Comments (anti-HIV activity) (HIV): Inactive

C[C@H](NC(=O)[C@@H](NC(=O)[C@@H]1CCCN1C(=O)[C@H](CCC(=O)O)NC(=O)[C@@H]1CCCN1C(=O)[C@@H](N)CCCNC(=N)N)[C@@H](C)O)C(=O)N1CCC[C@H]1C(N)=O [MPI-PEP3, NH2-RPEPTAP-CO—NH2] (H-RPEPTAP-NH2)
Comments (anti-HIV activity) (HIV): Inactive

p6(P10L): HIV1 p6gag binding domain construct with P10L substitution in the PTAP motif (LQSRPEPTALPEESFRFGEETTTPSQKQEPIDKELYPLASLRSLFGSDPSSQ; not fully specified)
β-galactosidase activity (in words) (Tsg101): reduced β-galactosidase activity to background levels
